# Data reported in paper PMC4944999 (PLoS ONE, 2016).
# Target: PeB^GF-Lys, double substituted variant ([change], [change]) of PeB-Lys (mouse)
# Assay: SPR
substance,measurement,value
"hemagglutinin (HA) of influenza A/California/7/2009 H1N1, in the split vaccine Pandemrix (natural protein)",fold amount of hemagglutinin bound compared to PeB,20 fold
